In PMC2930513:

Experiments:
[1] = target: HIV-1 BaL Env trimer (cleaved gp120/gp41) on Gag-Env VLPs (HIV-1 strain BaL); test: native gel or EMSA
[2] = target: HIV-1 JR-FL Env trimer (cleaved gp120/gp41) from JR-FL Gag-Env VLPs (HIV-1 strain JR-FL); test: native gel or EMSA

| Substance | stoichiometry N [1] | stoichiometry N [2] |
| --- | --- | --- |
| HIV-1 BaL Env trimer (cleaved gp120/gp41) on Gag-Env VLPs (complex) | 3 |  |
| HIV-1 JR-FL Env trimer (cleaved gp120/gp41) from JR-FL Gag-Env VLPs (complex) |  | 3 |
